± gives the standard deviation of the averaged measurements.
Tested on: ATP
Assay: switch fluorescence ratio, 500 uM ATP over buffer (Cy3 cluster intensity, sum of 5 cycles each) (fold (ratio)); higher = stronger signal-on switching upon ATP binding; sequences stand for … in TCGTCGGCAGCGTCAGATGTGTATAAGAGACAGTTTTTTTTTTTTTTTTTTTTTTTTT…TC
Settings: aptamer strand: ATP DNA aptamer (quencher-CACCTGGGGGAGTATTGCGGAGGAAGG + anchor), 100 nM annealed; ATP concentration: 500 uM
Method in brief: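 Between each of five buffer/ATP cycles, the flow-cell was stripped with NaOH and re-annealed. Each cycle imaged Cy3-labelled switching-strand clusters, annealed to 100 nM quencher-labelled ATP aptamer on a modified Illumina MiSeq flow-cell, first in selection buffer and then after 15 min with 500 uM ATP at 22 °C. The fluorescence ratio is summed target-cycle over summed buffer-cycle Cy3 intensity per cluster, averaged per switch-domain sequence, with clusters outside 100-1000 RFU excluded.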
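Note: ATP exposure 15 min at 22 °C before imaging.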

Row | Sequence | switch fluorescence ratio
1 | ACGGGCATTC | 1.76 ± 0.42
2 | ACGGGCGGGG | 1.02 ± 0.021
3 | ACGGGCTAGG | 1.01 ± 0.027
4 | ACGGGGAATG | 1.01 ± 0.056
5 | ACGGGGAGGT | 0.981 ± 0.04
6 | ACGGGGAGTT | 1.05 ± 0.031
7 | ACGGGGCATT | 1 ± 0.043
8 | ACGGGGCTTT | 1.05 ± 0.024
9 | ACGGGGGGAT | 1.04 ± 0.089
10 | ACGGGGGGGA | 1.03 ± 0.032
11 | ACGGGGGTGT | 0.984 ± 0.024
12 | ACGGGGTTTC | 1.01 ± 0.021
13 | ACGGGTATTA | 0.9907 ± 0.0014
14 | ACGGGTATTG | 1.02 ± 0.034
15 | ACGGGTCCGT | 0.986 ± 0.011
16 | ACGGGTCGGA | 1 ± 0.027
17 | ACGGGTGTAG | 0.989 ± 0.052
18 | ACGGGTTCGC | 0.988 ± 0.022
19 | ACGGTAATTC | 1.184 ± 0.011
20 | ACGGTAGGGT | 1.12 ± 0.06
21 | ACGGTCCAAG | 1.02 ± 0.015
22 | ACGGTGACGT | 1.01 ± 0.028
23 | ACGGTGCATG | 1.018 ± 0.006
24 | ACGGTGTATT | 0.998 ± 0.037
25 | ACGGTTGCGC | 1.01 ± 0.034

Row | Sequence | switch fluorescence ratio
26 | ACGGTTTGGC | 0.939 ± 0.063
27 | ACGGTTTTAA | 1 ± 0.03
28 | ACGGTTTTAC | 1.12 ± 0.012
29 | ACGTAAAAAG | 1.01 ± 0.065
30 | ACGTAACATA | 1.22 ± 0.017
31 | ACGTACTACT | 1.3895 ± 0.00013
32 | ACGTACTATT | 1.45 ± 0.23
33 | ACGTAGGTTC | 1.063 ± 0.0048
34 | ACGTAGGTTT | 1.03 ± 0.046
35 | ACGTATCGGC | 1.056 ± 0.0075
36 | ACGTATTCAT | 1.11 ± 0.013
37 | ACGTATTTTT | 1.12 ± 0.018
38 | ACGTCCCGGG | 1.09 ± 0.015
39 | ACGTCGCATG | 1.09 ± 0.046
40 | ACGTCGGGGG | 1 ± 0.021
41 | ACGTGACAGG | 1.22 ± 0.013
42 | ACGTGATTTG | 1.04 ± 0.025
43 | ACGTGCAACT | 0.981 ± 0.049
44 | ACGTGGGGGA | 1.02 ± 0.051
45 | ACGTGTGGGA | 1.04 ± 0.02
46 | ACGTTAAGTG | 1 ± 0.011
47 | ACGTTAGGGT | 1.04 ± 0.058
48 | ACGTTATTTT | 1.126 ± 0.0061
49 | ACGTTGACAG | 1.05 ± 0.011
50 | ACGTTGCAGC | 1.047 ± 0.006

Row | Sequence | switch fluorescence ratio
51 | ACGTTGCGAG | 0.994 ± 0.015
52 | ACGTTGCGTT | 1.02 ± 0.025
53 | ACGTTGCTTA | 1.007 ± 0.0052
54 | ACGTTGGAGA | 1.06 ± 0.0051
55 | ACGTTGGTAA | 1.02 ± 0.032
56 | ACGTTGTACA | 1.06 ± 0.038
57 | ACGTTGTACT | 1.14 ± 0.037
58 | ACGTTTATGT | 1.02 ± 0.02
59 | ACGTTTGGGG | 0.968 ± 0.049
60 | ACGTTTGTAT | 1 ± 0.031
61 | ACGTTTTGTG | 0.96 ± 0.028
62 | ACTAAAAAAA | 0.991 ± 0.025
63 | ACTAACGGGA | 1.39 ± 0.15
64 | ACTAATAAGT | 0.999 ± 0.028
65 | ACTAATGGGC | 1.03 ± 0.026
66 | ACTAATGTGG | 0.9959 ± 0.0068
67 | ACTACAGACG | 1.11 ± 0.061
68 | ACTACCTTAC | 3.15 ± 0.077
69 | ACTACGGATT | 1.06 ± 0.026
70 | ACTACGTGGG | 1.0708 ± 0.00037
71 | ACTACGTTAC | 2.88 ± 0.039
72 | ACTAGAAGAT | 0.9829 ± 0.0038
73 | ACTAGAAGGG | 0.9833 ± 0.0037
74 | ACTAGCAGCT | 1.01 ± 0.025
75 | ACTAGCTCTG | 1 ± 0.023

Row | Sequence | switch fluorescence ratio
76 | ACTAGGCCGA | 1.01 ± 0.044
77 | ACTAGGCTGG | 1.01 ± 0.028
78 | ACTAGGGGCA | 0.98 ± 0.036
79 | ACTAGGGTCT | 1 ± 0.081
80 | ACTAGGGTTT | 1.018 ± 0.0027
81 | ACTAGTTTTG | 0.976 ± 0.033
82 | ACTATATTTA | 1.034 ± 0.0063
83 | ACTATATTTG | 1.04 ± 0.022
84 | ACTATCCAGG | 2.226 ± 0.0049
85 | ACTATCGAAA | 1.09 ± 0.03
86 | ACTATGAGCC | 1.01 ± 0.021
87 | ACTATGGGGC | 1.01 ± 0.081
88 | ACTATGTGGT | 0.9971 ± 0.0096
89 | ACTATTATTC | 1.05 ± 0.034
90 | ACTATTTCGA | 1.01 ± 0.03
91 | ACTCACATAG | 1.217 ± 0.0056
92 | ACTCAGACCT | 1.3 ± 0.067
93 | ACTCAGGTCC | 1.077 ± 0.0054
94 | ACTCAGTGTC | 1.05 ± 0.023
95 | ACTCCAATGG | 1.85 ± 0.12
96 | ACTCGATGTG | 0.989 ± 0.045
97 | ACTCGGGGTT | 0.998 ± 0.04
98 | ACTCGGGTAG | 1.028 ± 0.0056
99 | ACTCGGTGTG | 0.992 ± 0.029
100 | ACTCTACTTG | 1.42 ± 0.16
